Assay [1] has as its target T1, recombinant human CD160 protein, soluble form, with a C-terminal tag of 6 histidine residues (R&D SYSTEMS) (human, UniProt O95971 27-159, limits assumed, biotinylated with EZ-Link sulfo-NHS-LC-biotin for BLI and ELISA; not biotinylated when immobilised on the CM5 chip for SPR).
T1 construct: domain: soluble form; Bought protein; also called hCD160-his; biotinylated CD160
T1 sequence: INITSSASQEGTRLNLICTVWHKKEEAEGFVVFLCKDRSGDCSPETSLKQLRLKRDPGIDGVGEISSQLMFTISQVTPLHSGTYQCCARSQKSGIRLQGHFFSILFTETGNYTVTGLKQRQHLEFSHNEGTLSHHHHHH
Briefly: BLI, biotinylated CD160 at 10 nM on streptavidin sensor, antibody 3.13-100 nM. The procedure: (§1) All the experiments were carried out at 30° C. in the running buffer recommended by Fortebio (PBS with 0.1% (p/v) of bovine serum albumin (BSA) and 0.02% (v/v) Tween-20). This buffer was also used for diluting the various ligands and analytes. The samples deposited in a 96-well microplate (cat #738-0026, Dutscher) were shaken at 1000 revolutions per minute.
(§2) The dissociation constants and the association (kₒₙ) and dissociation (kdis) rate constants for each antibody were calculated by applying a 1:1 interaction model, with overall mathematical modelling of curves (fit) (Rmax bound by the sensor) on the ForteBio 9.0 data analysis software.
A general note: BLI is a label-free optical method that tracks binding on a fibre tip over time.

In assay [2] the target is T2, human CD160 (CD160 GPI isoform) on cells (human, UniProt O95971 25-159, GPI anchor).
T2 sequence (looked up): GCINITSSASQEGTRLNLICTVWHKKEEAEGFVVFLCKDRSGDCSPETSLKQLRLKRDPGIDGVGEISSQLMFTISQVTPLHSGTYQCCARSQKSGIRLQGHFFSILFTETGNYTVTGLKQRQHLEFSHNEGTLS
Briefly: cell-based or functional assay.

Assay [3] concerns the target T1, recombinant human CD160 protein, …. As to the kind of experiment: BLI (repeats Table 8).
For assay [4] the target is unchanged. Briefly: BLI.
For assay [5] the target is unchanged. Briefly: BLI, biotinylated CD160 at 10 nM on streptavidin sensor, antibody 3.13-100 nM. This is another data set of the same source.
Assay [6] has the same target. As to the kind of experiment: SPR (Biacore), design close to Example 2.
Assay [7] shares this target. As to the kind of experiment: BLI, biotinylated CD160 at 10 nM on streptavidin sensor, antibody 3.13-100 nM. The source holds these as a separate data set.
The target is the same in assay [8]. Briefly: BLI (repeats Table 9).
For assay [9] the target is unchanged. As to the kind of experiment: BLI (Octet K2), biotinylated hCD160-His on streptavidin sensor, antibody as analyte. Here is the method: as §1
Between the measurements, the surfaces of the biosensor were regenerated by exposing them to 3 cycles of 5 sec in 10 mM glycine, pH 2, followed by 5 sec in running buffer. The association and dissociation phases were measured for 300 seconds. All the measurements were corrected for the basic drift by subtracting a reference well with a ligand subjected only to the running buffer.
as §2

B1: F04 in the IgG1 E345K format (antibody)
heavy: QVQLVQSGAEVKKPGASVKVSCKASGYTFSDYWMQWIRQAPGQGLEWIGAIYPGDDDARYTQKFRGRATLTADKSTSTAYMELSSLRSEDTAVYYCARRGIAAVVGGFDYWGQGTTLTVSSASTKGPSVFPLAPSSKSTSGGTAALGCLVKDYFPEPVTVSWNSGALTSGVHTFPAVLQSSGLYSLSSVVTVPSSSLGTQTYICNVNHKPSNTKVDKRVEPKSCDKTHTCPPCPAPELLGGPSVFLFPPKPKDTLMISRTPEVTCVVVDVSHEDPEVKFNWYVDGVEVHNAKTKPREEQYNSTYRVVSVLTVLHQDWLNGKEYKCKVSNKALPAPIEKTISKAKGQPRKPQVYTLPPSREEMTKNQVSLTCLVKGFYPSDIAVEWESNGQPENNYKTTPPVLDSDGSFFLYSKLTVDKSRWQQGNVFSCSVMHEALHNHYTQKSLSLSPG
light: EIVLTQSPATLSLSPGERATLSCRASQSISNHLHWYQQKPGQAPRLLIKYASQSISGIPARFSGSGSGTDFTLTISSLEPEDFAVYFCQQSNSWPLTFGGGTKVEIKRTVAAPSVFIFPPSDEQLKSGTASVVCLLNNFYPREAKVQWKVDNALQSGNSQESVTEQDSKDSTYSLSSTLTLSKADYEKHKVYACEVTHQGLSSPVTKSFNRGEC
notes: also called ELB02113
In the case of B1, in assay [1], the Kd stood at 1.55 nM, the koff is 0.000662 s⁻¹ and the kon is 427000 M⁻¹ s⁻¹. Besides, in assay [2], the “EC50 of IFN-gamma production by NK cells, additional improvement against the IgG1 variants” value turned out to be 2 logs and the “EC50 of IFN-gamma production by NK cells, improvement against ELB02101” value turned out to be 4 logs.

B2: F04 IgG4 S228P/R409K (antibody)
heavy: QVQLVQSGAEVKKPGASVKVSCKASGYTFSDYWMQWIRQAPGQGLEWIGAIYPGDDDARYTQKFRGRATLTADKSTSTAYMELSSLRSEDTAVYYCARRGIAAVVGGFDYWGQGTTLTVSSASTKGPSVFPLAPCSRSTSESTAALGCLVKDYFPEPVTVSWNSGALTSGVHTFPAVLQSSGLYSLSSVVTVPSSSLGTKTYTCNVDHKPSNTKVDKRVESKYGPPCPPCPAPEFLGGPSVFLFPPKPKDTLMISRTPEVTCVVVDVSQEDPEVQFNWYVDGVEVHNAKTKPREEQFNSTYRVVSVLTVLAQDWLNGKEYKCKVSNKGLPSSIEKTISKAKGQPREPQVYTLPPSQEEMTKNQVSLTCLVKGFYPSDIAVEWESNGQPENNYKTTPPVLDSDGSFFLYSKLTVDKSRWQEGNVFSCSVMHEALHNQYTQKSLSLSLG
light: EIVLTQSPATLSLSPGERATLSCRASQSISNHLHWYQQKPGQAPRLLIKYASQSISGIPARFSGSGSGTDFTLTISSLEPEDFAVYFCQQSNSWPLTFGGGTKVEIKRTVAAPSVFIFPPSDEQLKSGTASVVCLLNNFYPREAKVQWKVDNALQSGNSQESVTEQDSKDSTYSLSSTLTLSKADYEKHKVYACEVTHQGLSSPVTKSFNRGEC
notes: also called ELB01106
For the molecule B2, the dissociation constant (Kd) in assay [3] worked out at 1.63 nM; in assay [5], 1.63 nM; in [6], 4.1 nM. The values for the off-rate (koff) in assay [3], in [5] and in assay [6] were 0.000736 s⁻¹, 0.000736 s⁻¹ and 0.000721 s⁻¹, respectively. Moreover, the kon worked out at 453000 M⁻¹ s⁻¹ in assay [3], 453000 M⁻¹ s⁻¹ in [5] and 176000 M⁻¹ s⁻¹ in assay [6]. The results for the “Gain in KD/respective IgG” value in assay [4] and in assay [6] were 1.8 fold and 3.5 fold, respectively.

B3: F04 in the IgG1 format (antibody)
heavy: not shown
light: EIVLTQSPATLSLSPGERATLSCRASQSISNHLHWYQQKPGQAPRLLIKYASQSISGIPARFSGSGSGTDFTLTISSLEPEDFAVYFCQQSNSWPLTFGGGTKVEIKRTVAAPSVFIFPPSDEQLKSGTASVVCLLNNFYPREAKVQWKVDNALQSGNSQESVTEQDSKDSTYSLSSTLTLSKADYEKHKVYACEVTHQGLSSPVTKSFNRGEC
notes: also called ELB02103
B3: the Kd in assay [7] was found to be 1.43 nM; in assay [8], 1.43 nM; in assay [6], 3.6 nM. The koff was found to be 0.000531 s⁻¹ in [7], 0.000531 s⁻¹ in assay [8] and 0.000726 s⁻¹ in [6]. Besides, the kon was found to be 371000 M⁻¹ s⁻¹ in assay [7], 371000 M⁻¹ s⁻¹ in [8] and 200000 M⁻¹ s⁻¹ in assay [6]. In assay [2], the “EC50 of NK cell activation (IFN-γ, CD69), improvement against ELB02101” value fell in the range of 2 to 3 logs. Besides, the figures for the “Gain in KD/respective IgG” value in assay [4] and in [6] were 2.1 fold and 3.3 fold, respectively.

B4: H7 IgG4 S228P/R409K/H310A/H435Q (antibody)
heavy: QVQLVQSGAEVKKPGASVKVSCKASGYTFTDYWMQWIRQAPGQGLEWIGSIYPGDDDARYTQKFRGRATLTADKSTSTAYMELSSLRSEDTAVYYCARRGIAAVVGGFDYWGQGTTLTVSSASTKGPSVFPLAPCSRSTSESTAALGCLVKDYFPEPVTVSWNSGALTSGVHTFPAVLQSSGLYSLSSVVTVPSSSLGTKTYTCNVDHKPSNTKVDKRVESKYGPPCPPCPAPEFLGGPSVFLFPPKPKDTLMISRTPEVTCVVVDVSQEDPEVQFNWYVDGVEVHNAKTKPREEQFNSTYRVVSVLTVLAQDWLNGKEYKCKVSNKGLPSSIEKTISKAKGQPREPQVYTLPPSQEEMTKNQVSLTCLVKGFYPSDIAVEWESNGQPENNYKTTPPVLDSDGSFFLYSKLTVDKSRWQEGNVFSCSVMHEALHNQYTQKSLSLSLG
light: EIVLTQSPATLSLSPGERATLSCRASQSISNHLHWYQQKPGQAPRLLIKYASQSISGIPARFSGSGSGTDFTLTISSLEPEDFAVYFCQQSNSWPLTFGGGTKVEIKRTVAAPSVFIFPPSDEQLKSGTASVVCLLNNFYPREAKVQWKVDNALQSGNSQESVTEQDSKDSTYSLSSTLTLSKADYEKHKVYACEVTHQGLSSPVTKSFNRGEC
notes: also called ELB01102; H7 IgG4 H310A-H435Q
Regarding B4, in assay [3], the Kd stood at 2.91 nM, the koff was 0.00148 s⁻¹ and the kon was 507000 M⁻¹ s⁻¹. In addition, in [5], the equilibrium dissociation constant (Kd) worked out at 2.91 nM, the koff was found to be 0.00148 s⁻¹ and the kon is 507000 M⁻¹ s⁻¹. Moreover, in [6], the Kd worked out at 14.5 nM, the koff worked out at 0.00297 s⁻¹ and the kon was determined as 205000 M⁻¹ s⁻¹.

B5: chimerized antibody issued from CL1-R2 in the human IgG1 format (antibody, V domains shown)
VH: QVHLQQSGAELARPGASVKLSCKASGYTFTDYWMQWIKQRPGQGLEWIGSIYPGDDDARYTQKFRGKATLTADKSSSTAYMQLSSLASEDSAVYYCARRGIAAVVGGFDYWGQGTTLTVSS
VL: DIVLTQSPATLSVTPGNSVSLSCRASQSISNHLHWYQQKSHESPRLLIKYASQSISGIPSRFSGSGSGTDFTLSINSVETEDFGMYFCQQSNSWPLTFGAGTKLELK
notes: also called chIgG1; chimeric IgG1
For B5, in assay [9], the “Binding response, at 50 nM of anti-CD160” value was 0.41 nm (arbitrary units); the Kd worked out at 14.3 nM; the koff worked out at 0.00297 s⁻¹; the kon came to 208000 M⁻¹ s⁻¹.

B6: CL1-R2 murine monoclonal anti-human CD160 antibody (antibody, V domains shown)
VH: QVHLQQSGAELARPGASVKLSCKASGYTFTDYWMQWIKQRPGQGLEWIGSIYPGDDDARYTQKFRGKATLTADKSSSTAYMQLSSLASEDSAVYYCARRGIAAVVGGFDYWGQGTTLTVSS
VL: DIVLTQSPATLSVTPGNSVSLSCRASQSISNHLHWYQQKSHESPRLLIKYASQSISGIPSRFSGSGSGTDFTLSINSVETEDFGMYFCQQSNSWPLTFGAGTKLELK
notes: Murine IgG1; also called parental CL1-R2; murine anti-CD160 IgG1
Turning to B6, in assay [9], the “Binding response, at 50 nM of anti-CD160” value is 0.6 nm (arbitrary units); the equilibrium dissociation constant (Kd) is 15.4 nM; the koff is 0.00283 s⁻¹; the kon is 183000 M⁻¹ s⁻¹.

B7: chimerized antibody issued from CL1-R2 in the human IgG4 format (antibody, V domains shown)
VH: QVHLQQSGAELARPGASVKLSCKASGYTFTDYWMQWIKQRPGQGLEWIGSIYPGDDDARYTQKFRGKATLTADKSSSTAYMQLSSLASEDSAVYYCARRGIAAVVGGFDYWGQGTTLTVSS
VL: DIVLTQSPATLSVTPGNSVSLSCRASQSISNHLHWYQQKSHESPRLLIKYASQSISGIPSRFSGSGSGTDFTLSINSVETEDFGMYFCQQSNSWPLTFGAGTKLELK
notes: also called chIgG4; chimeric IgG4
Turning to B7, in assay [9], the “Binding response, at 50 nM of anti-CD160” value was 0.41 nm (arbitrary units); the Kd turned out to be 14.8 nM; the dissociation rate constant (koff) was 0.00323 s⁻¹; the kon came out at 218000 M⁻¹ s⁻¹.

Usually Kd stands for a measure of binding affinity in units of concentration. By koff is commonly meant the rate constant with which the complex falls apart. In general, kon refers to the rate constant with which the complex forms.

Values taken from patent US20200109211A1 (ELSALYS BIOTECH, published 2020).
